The target of this data set is hSSB1 (SSB1, single-stranded DNA binding protein 1) (human, UniProt Q9BQ15 1-211). The experiment in a line: EMSA.

The values that follow come from PMC4351820.

Chain of hSSB1 (SSB1, single-stranded DNA binding protein 1) (Q9BQ15 whole entry): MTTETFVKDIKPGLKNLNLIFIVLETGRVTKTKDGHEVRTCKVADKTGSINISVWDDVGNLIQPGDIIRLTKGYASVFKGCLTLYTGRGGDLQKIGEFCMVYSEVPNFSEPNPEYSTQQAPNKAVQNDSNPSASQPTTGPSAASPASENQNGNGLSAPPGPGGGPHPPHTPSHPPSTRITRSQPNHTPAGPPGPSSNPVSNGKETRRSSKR

Regarding TTAGGGTTAGGGTTAGGGTTAGGGTTAGGG (ssDNA) [G-rich telomeric strand (TTAGGG)5], the binding result was “binds”.
